According to PMC11984658 (Journal of structural biology, 2024):

Assays:
SAXS = molecular target: the molecule itself; experiment: SAXS
SEC-MALS = molecular target: the molecule itself; experiment: SEC-MALS

B1: RAD52(1–212) (domain or fragment, human, UniProt P43351 1-212, looked up)
chain: MSGTEEAILGGRDSHPAAGGGSVLCFGQCQYTAEEYQAIQKALRQRLGPEYISSRMAGGGQKVCYIEGHRVINLANEMFGYNGWAHSITQQNVDFVDLNNGKFYVGVCAFVRVQLKDGSYHEDVGYGVSEGLKSKALSLEKARKEAVTDGLKRALRSFGNALGNCILDKDYLRSLNKLPRQLPLEVDLTKAKRQDLEPSVEEARYNSCRPNM
stoichiometry N (SAXS): 10 subunits
stoichiometry N (SEC-MALS): 9.7 subunits

B2: RAD52(1–303) (domain or fragment, human, UniProt P43351 1-303, looked up)
chain: MSGTEEAILGGRDSHPAAGGGSVLCFGQCQYTAEEYQAIQKALRQRLGPEYISSRMAGGGQKVCYIEGHRVINLANEMFGYNGWAHSITQQNVDFVDLNNGKFYVGVCAFVRVQLKDGSYHEDVGYGVSEGLKSKALSLEKARKEAVTDGLKRALRSFGNALGNCILDKDYLRSLNKLPRQLPLEVDLTKAKRQDLEPSVEEARYNSCRPNMALGHPQLQQVTSPSRPSHAVIPADQDCSSRSLSSSAVESEATHQRKLRQKQLQQQFRERMEKQQVRVSTPSAEKSEAAPPAPPVTHSTPVT
stoichiometry N (SEC-MALS): 9.5 subunits
